Reference: patent US20230139700A1 (BIO THERA SOLUTIONS, published 2023)

T1: hOX40-FC (human, UniProt P43489 29-216)
T1 construct: range 1-216; Made in HEK293; The stated range 1-216 starts at residue 1, so it holds the signal peptide of the entry; also called human OX40 extracellular region fused to human IgG1-Fc; not shown: human IgG1-Fc, UniProt P01857, residues 104 to 330
T1 sequence (looked up): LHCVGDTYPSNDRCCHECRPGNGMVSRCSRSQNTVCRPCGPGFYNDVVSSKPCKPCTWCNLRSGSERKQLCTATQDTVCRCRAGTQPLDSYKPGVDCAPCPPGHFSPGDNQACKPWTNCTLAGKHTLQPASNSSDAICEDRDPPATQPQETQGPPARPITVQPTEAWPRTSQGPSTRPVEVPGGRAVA

T2: hOX40-his (human, UniProt P43489 29-216)
T2 construct: range 1-216; Made in HEK293; The stated range starts at residue 1 (holds the signal peptide of the entry); no cleavage site stated; not shown: his tag
T2 sequence (looked up): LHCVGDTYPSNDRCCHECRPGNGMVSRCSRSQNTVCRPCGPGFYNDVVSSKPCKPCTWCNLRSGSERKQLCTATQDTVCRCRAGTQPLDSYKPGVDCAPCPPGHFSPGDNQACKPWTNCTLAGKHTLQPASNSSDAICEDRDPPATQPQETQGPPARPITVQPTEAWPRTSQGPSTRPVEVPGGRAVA


Target: T1, hOX40-FC
Assay: BLI (ForteBio), biotinylated antibody on SA sensor, OX40-Fc 50 nM bivalent, 1:1 model
Experimental: The ForteBio affinity assay was conducted according to the existing conventional method (Estep, P et al., MAbs, 2013, 5(2): 270-8). The brief process is as follows: the sensor was equilibrated offline in an assay buffer (such as PBS) for 20 min and then subjected to online test for 60 s to establish a signal baseline. The purified antibodies obtained as described above were each loaded online onto a corresponding sensor (ForteBio), and finally the ForteBio affinity assay was conducted. The biotinylated candidate antibodies were adsorbed with the SA sensor, and binding and dissociation of hOX40-FC were each detected for about 5 min. The results are shown in Table 4, and N.D indicates not detected in Table 4. Finally, kinetic analysis was performed for all by using a 1:1 binding model.

| Kd [nM] | Binder |
| --- | --- |
| 3 | Antibody-F15-1L (antibody, human IgG1, kappa, V domains shown, also called Antibody-F15-IL; antibody No. 3) VH: QVQLRESGGGLVQPGGSLRLSCAASGFTFSSYAMNWVRQAPGKGLEWVSAISGSGGNTYYADSVKGRLTISRDNSKNTLYLQMNSLRAEDTAVYYCAKDPLGSSWFEYFQHWGQGTLVTVSS VL: QSALTQPASVSGSPGQSITISCTGTSSDVGGYNYVSWYQKHPGKAPKLMIYEVSNRPSGVSNRFSGSKSANTASLTISGLQAEDEADYFCSSYSSSSTLVVFGGGTKLTVLR |

Target: T2, hOX40-his
Assay: BIACORE, antibody on the probe, 20 nM OX40-his
Description: Table 10 illustrates the CDRs of eight full antibodies containing these amino acid mutations, and the rest of the sequences are the same as those of antibody-F23-32K. […] The sequences of the anti-OX40 antibody (antibody M) are shown in Table 12; wherein, the expression cells used for the antibodies above (including antibody M) are CHO-S cells, and the method for preparing the antibody M-KF is as follows: the antibody M was identical to the antibody M-KF in terms of amino acid sequence and was expressed by the CHO cell line in which the fut8 gene was knocked out (the content of fucose in antibody M-KF was about 0%).

| Binder | Kd [nM] | koff [s⁻¹] | kon [M⁻¹ s⁻¹] |
| --- | --- | --- | --- |
| VH + VGTD (antibody, human IgG1, kappa, V domains shown) VH: QVQLEESGGGVVQPGESLRLSCAASGFTFSSYGMHWVRQAPGKGLEWVAVISYDGSNQYYADSVKGRFTISRDNSKNTLYLQMNSLRAEDTAVYYCAKDNQDSSPDVGIDYWGQGTLVTVSS VL: DIQMTQSPSSLSASVGDTVTITCRASQNISPFLNWYQQKPGKAPKLLIYAAVGLQSGVPSRFSGSGSGTDFTLTISSLQPEDFATYYCQQYTDYPLTFGGGTKVEIKR | 0.565 | 0.000243 | 431000 |
| T + TD (antibody, human IgG1, kappa, V domains shown) VH: QVQLEESGGGVVQPGESLRLSCAASGFTFSSYGMHWVRQAPGKGLEWVAVISYDGSNQYYADSVKGRFTISRDNSKNTLYLQMNSLRAEDTAVYYCAKDNQDTSPDVGIDYWGQGTLVTVSS VL: DIQMTQSPSSLSASVGDTVTITCRASQNISPFLNWYQQKPGKAPKLLIYAASSLQSGVPSRFSGSGSGTDFTLTISSLQPEDFATYYCQQYTDYPLTFGGGTKVEIKR | 5.01 | 0.00139 | 278000 |
| WEST + VG (antibody, human IgG1, kappa, V domains shown) VH: QVQLEESGGGVVQPGESLRLSCAASGFTFSSYGMHWVRQAPGKGLEWVAVIWEDGSNQYYADSVKGRFTISRDNSKNTLYLQMNSLRAEDTAVYYCAKDNQDTSPDVGIDYWGQGTLVTVSS VL: DIQMTQSPSSLSASVGDTVTITCRASQNISPFLNWYQQKPGKAPKLLIYAAVGLQSGVPSRFSGSGSGTDFTLTISSLQPEDFATYYCQQYNSYPLTFGGGTKVEIKR | 0.77 | 0.000348 | 452000 |
| WEST + VL (antibody, human IgG1, kappa, V domains shown) VH: QVQLEESGGGVVQPGESLRLSCAASGFTFSSYGMHWVRQAPGKGLEWVAVIWEDGSNQYYADSVKGRFTISRDNSKNTLYLQMNSLRAEDTAVYYCAKDNQDTSPDVGIDYWGQGTLVTVSS VL: DIQMTQSPSSLSASVGDTVTITCRASQNISPFLNWYQQKPGKAPKLLIYAASSLQSGVPSRFSGSGSGTDFTLTISSLQPEDFATYYCQQYNSYPLTFGGGTKVEIKR | 1.93 | 0.000714 | 371000 |

More lines, now with the values ahead:

| Kd [nM] | koff [s⁻¹] | kon [M⁻¹ s⁻¹] | Binder |
| --- | --- | --- | --- |
| 0.266 | 0.000119 | 448000 | T + VGL + TD (antibody, human IgG1, kappa, V domains shown) VH: QVQLEESGGGVVQPGESLRLSCAASGFTFSSYGMHWVRQAPGKGLEWVAVISYDGSNQYYADSVKGRFTISRDNSKNTLYLQMNSLRAEDTAVYYCAKDNQDTSPDVGIDYWGQGTLVTVSS VL: DIQMTQSPSSLSASVGDTVTITCRASQNISPFLNWYQQKPGKAPKLLIYAAVGLQSGVPSRFSGSGSGTDFTLTISSLQPEDFATYYCQQYTDYPLTFGGGTKVEIKR |
| 0.653 | 0.000321 | 491000 | WEST + TD (antibody, human IgG1, kappa, V domains shown) VH: QVQLEESGGGVVQPGESLRLSCAASGFTFSSYGMHWVRQAPGKGLEWVAVIWEDGSNQYYADSVKGRFTISRDNSKNTLYLQMNSLRAEDTAVYYCAKDNQDTSPDVGIDYWGQGTLVTVSS VL: DIQMTQSPSSLSASVGDTVTITCRASQNISPFLNWYQQKPGKAPKLLIYAASSLQSGVPSRFSGSGSGTDFTLTISSLQPEDFATYYCQQYTDYPLTFGGGTKVEIKR |
| 4.54 | 0.00133 | 292000 | T + VG (antibody, human IgG1, kappa, V domains shown) VH: QVQLEESGGGVVQPGESLRLSCAASGFTFSSYGMHWVRQAPGKGLEWVAVISYDGSNQYYADSVKGRFTISRDNSKNTLYLQMNSLRAEDTAVYYCAKDNQDTSPDVGIDYWGQGTLVTVSS VL: DIQMTQSPSSLSASVGDTVTITCRASQNISPFLNWYQQKPGKAPKLLIYAAVGLQSGVPSRFSGSGSGTDFTLTISSLQPEDFATYYCQQYNSYPLTFGGGTKVEIKR |
